This data set concerns T1, NC(=O)C1=CN([C@@H]2O[C@H](COP(=O)(O)OP(=O)(O)OC[C@H]3O[C@@H](n4cnc5c(N)ncnc54)[C@H](OP(=O)(O)O)[C@@H]3O)[C@@H](O)[C@H]2O)C=CC1.
T1 construct: full-length, 712 residues, pESC-URA MCS2, yeast (S. cerevisiae INVSc1) microsomes
Nature of the data set: cytochrome c reduction, yeast microsomes. The data set is classed as biochemical, Hypericum calycinum. The note with it: electron acceptor cytochrome c.

Our source for the Km values is publication PMC4858744, “Bifunctional CYP81AA proteins catalyse identical hydroxylations but alternative regioselective phenol couplings in plant xanthone biosynthesis” (Nature Communications, 2016).

The Km is the concentration of substrate that gives half-maximal velocity.

Sequence of HcCPR2 (Hypericum calycinum) (chain, as listed by the source): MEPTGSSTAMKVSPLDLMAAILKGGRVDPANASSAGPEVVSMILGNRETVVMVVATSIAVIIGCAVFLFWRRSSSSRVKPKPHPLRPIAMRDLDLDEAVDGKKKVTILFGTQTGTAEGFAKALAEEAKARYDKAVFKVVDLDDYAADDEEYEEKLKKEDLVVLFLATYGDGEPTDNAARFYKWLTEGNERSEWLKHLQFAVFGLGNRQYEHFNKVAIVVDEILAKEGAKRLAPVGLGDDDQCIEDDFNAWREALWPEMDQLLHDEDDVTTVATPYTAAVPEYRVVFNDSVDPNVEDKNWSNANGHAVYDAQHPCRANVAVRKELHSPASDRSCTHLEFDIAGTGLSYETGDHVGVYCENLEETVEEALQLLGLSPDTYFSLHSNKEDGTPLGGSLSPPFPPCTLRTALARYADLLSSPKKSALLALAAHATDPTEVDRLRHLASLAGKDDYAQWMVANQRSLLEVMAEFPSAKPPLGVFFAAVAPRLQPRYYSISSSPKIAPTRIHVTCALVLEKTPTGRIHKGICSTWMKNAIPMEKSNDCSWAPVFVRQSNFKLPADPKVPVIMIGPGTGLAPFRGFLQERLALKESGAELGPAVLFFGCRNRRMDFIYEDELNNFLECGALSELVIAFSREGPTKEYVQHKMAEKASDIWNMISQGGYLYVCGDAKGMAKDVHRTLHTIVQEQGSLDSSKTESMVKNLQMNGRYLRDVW

Regarding HcCPR2 (Hypericum calycinum), the Michaelis-Menten constant (Km) was determined as 43.9 ± 6.5 µM.
